Measured values reported in article PMC7424725 (ACS Omega, 2020).

Assays:
[1] = biological target: T1, trypsin (Bos taurus, UniProt P00760); test: Trypsin degradation assay; format: in vitro ADME
T1 sequence (P00760 24-246): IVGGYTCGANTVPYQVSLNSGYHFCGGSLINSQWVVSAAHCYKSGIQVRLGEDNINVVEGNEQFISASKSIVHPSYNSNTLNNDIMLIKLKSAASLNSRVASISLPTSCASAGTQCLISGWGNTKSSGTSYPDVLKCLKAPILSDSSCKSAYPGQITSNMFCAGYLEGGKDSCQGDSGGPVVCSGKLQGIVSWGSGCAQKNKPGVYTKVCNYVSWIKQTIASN

[2] = cited from earlier work

Substance | degradation half-life compared to HI + free Prg-SFTI 7 ([1]; enzyme/substrate ratio 1:2) [times] | degradation half-life compared to HI + free Prg-SFTI 7 ([1]; enzyme/substrate ratio 1:4) | pKa of the lysine side-chain amine [2] | pKa of the two N-terminal amines (A1 and B1) [2]
SFTI-Triazolyl-(GQAP)49-GQEP-Cys(B29Nε-Acetyl desB30 Human Insulin) (bicyclic or more) [insulin-SFTI 9] | 3 | twice as long |  | 
insulin |  |  | ~10 | ~7
